The record followed here is patent US11529397B2, “Method of treating mucopolysaccharidosis type IVA” (Saint Louis University, priority 2018, dated 2022).

The subject of series [1] is splenocytes. In words: Screening of peptides by splenocytes proliferation, retest in MKC mice (Examples 5-6). The class given is cell-based, mouse. As to conditions: MKC mice, 16, 22 and 24 infusions; with higher number of infusions. On the procedure:
of body weight through the tail vein. A control group received PBS. […] The suspension was centrifuged at 1,000 rpm during 10 minutes. […] The specificity of cellular response against the peptides or the complete enzyme in the in vitro stimulation was determined by splenocyte proliferation or cytokine secretion in ERT treated mice or PBS injected control mice. […] 3H-Thymidine incorporation was measured by β-Scintillation counter (Trilux Microbeta Counter). Proliferation data are expressed as counts per minute (cpm) values (FIG. 5). (Mirano-Bascos et al. (2010) J Virol. 84(7): p. 3303-11).

The subject of series [2] is splenocytes. Kind of series: Cytokine production by splenocytes after in vitro stimulation (Example 3). The class given is cell-based, mouse. As to conditions: splenocytes of MKC mice treated by ERT with GALNS; culture supernatant. On the procedure: Mice (MKC) genetically engineered not to express GALNS were used in these examples. […] 200 μl of the emulsion were administered as a subcutaneous injection. […] Control mice (n=2) were immunized with PBS emulsified in CFA and IFA respectively (Chung et al. (2005) J. Leukoc Biol. 77(6):906-13)). […] A control group (n=5) received PBS (Tomatsu et al. (2008) Hum Mol Genet. 15; 17(6):815-24). […]
The production of cytokines after peptide stimulation was evaluated as intracellular staining (by flow cytometry) and secreted cytokines (by LUMINEX). […] The cells were treated with 1 μl of a protein transport inhibitor BD GolgiPlug™ during 5 h at 37° C., saturated humidity and 5% CO2. The suspension of cells was centrifuged at 1000 rpm during 10 minutes. The supernatants were collected by further analysis with LUMINEX. The Fc receptors were blocked with 1 μl of α-mouse CD16/32 (e-Bioscience) during 15 min at 4° C. After washing, the cells were stained with PE-Cy7-labeled anti-mouse CD4 and Alexa700-labeled anti-mouse CD8 antibodies during 30 min at 4° C. After two washes, cells were permeabilized with a BD fixation/permeabilization solution during 20 min at 4° C. Cells were washed two times and stained with a cocktail of antibodies for intracellular staining (PE-labeled anti-mouse IL-4, APC-labeled anti-mouse IL-5 and FITC-labeled anti-mouse IFN-γ). After two washes, cells were analyzed by flow cytometry. Secreted cytokines (IL-4, IL-5, IL-13, IL-17 and IFN-γ) in the collected supernatants were detected by using a bead immunoassay kit which allows the measurement of multiple proteins simultaneously (LUMINEX technology, using a Millipore Milliplex™ kit).

For series [3], the system named is Morquio A mice and WT mice. In words: Plasma IgG anti-GALNS by indirect ELISA in mice treated by ERT (Example 8). The class given is in vivo, mouse. To be noted: 16 i.v. infusions of GALNS. On the procedure: Morquio A mouse models: a). […] 14(22): p. 3321-35).c). Missense mutation mice (Galnstm (C76S) SLU C2) (Tomatsu et al. (2007) Mol Genet Metab., 91(3): p. 251-8), and wild-type C57BL6 mice were treated by ERT. […] A control group received PBS.
An indirect ELISA technique was used to detect plasma IgG antibodies against GALNS in treated and untreated mice. […] The plates were blocked with 3% casein in PBS during 1 h at room temperature in a wet chamber. After two washes, first with TTBS (10 mM Tris, 150 mM NaCl, 0.05% Tween 20, pH 7.5), and then with TBS (10 mM Tris, 150 mM NaCl, 0.05%, pH 7.5), […] of mice plasma samples diluted (1:1,000) in TTBS were added to the plate and incubated 2 h at 37° C. in a wet chamber. Four washes with TTBS were performed. 100 μl of anti-mouse IgG-Peroxidase (Sigma) 1:5,000 dilution in TTBS were applied. After three washes with TTBS, followed by one wash with TBS, the experiment was developed with the substrate TMB (3,3′,5,5′-Tetramethylbenzidine, Sigma). The enzymatic reaction was stopped with IN HCl solution and the absorbance was measured at 450 nm in a microplate reader Multiskan® EL800 (Bio-Tek Instruments). Plasma concentrations of IgG antibodies anti-GALNS were derived by extrapolation of the absorbance values from a calibration curve using a mAb anti-GALNS.
For orientation: ELISA stands for enzyme-linked immunosorbent assay.

Consider “QQHQEALVPAQPQLNVTNWA (listed as Homo sapiens) [Peptide I10]”, for which the “relationship between number of weekly i.v. infusions and cpm values of splenocytes proliferation” value in the series on splenocytes [1] is listed as “lower levels of proliferation”. The “secretion of cytokines IL-5 and IFN-γ” value with splenocytes [2] was “strong response”.

B1: N-acetylgalactosamine-6-sulfatase (protein, listed as Homo sapiens)
chain: APQPPNILLLLMDDMGWGDLGVYGEPSRETPNLDRMAAEGLLFPNFYSANPLCSPSRAALLTGRLPIRNGFYTTNAHARNAYTPQEIVGGIPDSEQLLPELLKKAGYVSKIVGKWHLGHRPQFHPLKHGFDEWFGSPNCHFGPYDNKARPNIPVYRDWEMVGRYYEEFPINLKTGEANLTQIYLQEALDFIKRQARHHPFFLYWAVDATHAPVYASKPFLGTSQRGRYGDAVREIDDSIGKILELLQDLHVADNTFVFFTSDNGAALISAPEQGGSNGPFLCGKQTTFEGGMREPALAWWPGHVTAGQVSHQLGSIMDLFTTSLALAGLTPPSDRAIDGLNLLPTLLQGRLMDRPIFYYRGDTLMAATLGQHKAHFWTWTNSWENFRQGIDFCPGQNVSGVTTHNLEDHTKLPLIFHLGRDPGERFPLSFASAEYQEALSRITSVVQQHQEALVPAQPQLNVCNWAVMNWAPPGCEKLGKCLTPPESIPKKCLWSH
notes: recombinant human GALNS produced in CHO cells, used for ERT and oral tolerance
As for B1, the “relationship between number of weekly i.v. infusions and cpm values of splenocytes proliferation” value with splenocytes [1] is given as “lower levels of proliferation”. For the same molecule, the “humoral response, IgG anti-GALNS in plasma” value in series [3] (C2 mice) was “heterogeneous humoral response”; in series [3] (MKC mice), “stronger and more homogeneous response”; in series [3] (MTol mice), “lowest levels of response”; in series [3] (WT mice) it was “heterogeneous humoral response”.
